assay: soluble on expression in E. coli; label from the status in PepcDB or PDB records

Row | Sequence | soluble on expression in E. coli
1 | GQSMTQQLRVLKSGVDIVVGTPGRVIDHLERKSLNLEHIAYFVLDEADEMLNMGFIDDIKEILKSTGPNKRMLFFSATMPKAILGIVKKHMQNYEHITIEKEELTETLTEQIYFEVKESDKFEALCRIIDIEDEFYGLVFCRTKTDTSQLAQKLSDRGYLADALHGDLSQQEREKILNKFRKQKINILAATDVAARGIDIMDLTHVINYALPQDPESYVHRIGRTGRAGKQGTAITFVTSTEFRRLTYIKKTSKSEMKKGHIPEIKDVIKAKRARVRTELEETIKTEEYGDCLEMSQKLLEEYPAEKILAALLKFTFKDKFDESMYTEISSGSSYVDRKGKSRLFIAMGKADGMTPDKLSYFIQEELGDGELKVRDAEIFPHFSFVTLPFAQAETLIEIFKNKRRGSKPFVELAQKSRGRSSKDSGETRSDNRGTSRGNSRNGESRGDSRGESRGTKSTNYSRSTRSTRSTKK | not soluble
2 | GSDIGQVIHPDDFDKAAADDYVLHEDGEKIYFLIKSKTDEYCFTNLALVHLDGESAVSSKRVLYRYPYAHYPIRHVMFETAGTVDLDVEIKFEIGGKHYSIDVDKKQLEHVKDLYKALLAIAEKQYEGQKMLEFANSSLNHSVTILGGLRQGDMNVPQTFKDLSQESFDWLQGHYYKWNQKDFGSFYEKYINN | soluble
3 | GSEEHCAPNKEPVKYGELVVLGYNGALPNGDRGRRKSRFALYKRPKANGVKPSTVHVISTPQASKAISCKGQHSISYTLSRNQTVVVEYTHDKDTDMFQVGRSTESPIDFVVTDTISGSQNTDEAQITQSTISRFACRIVCDRNEPYTARIFAAGFDSSKNIFLGEKAAKWKNPDGHMDGLTTNGVLVMHPRGGFTEESQPGVWREISVCGDVYTLRETRSAQQRGKLVESETNVLQDGSLIDLCGATLLWRTADGLFHTPTQKHIEALRQEINAARPQCPVGLN | soluble
4 | GSEQKKRRLEEGTRANSVAESSPPFPLRSKTSVGSTNSQITETKNKQGVYPITESNLRILEGEDRSEKAKELLKKYVSNVFENEKTLYIYCKYVMLHYGKDLVNPNEVDSLEFQIINGGITNILIKVKDMSKQAKYLIRLYGPKTDEIINREREKKISCILYNKNIAKKIYVFFTNGRIEEFMDGYALSREDIKNPKFQKLIAKNLKLLHDIKLNENLYKELQVTQKVPGTRPSFLWNTIWKYFHLLNEERKKICSFDAKANILKLIDFDVLRDSIVEVESLCKRENSPIVLCHCDLLSSNIINTVGGGEAGELGEAGETGEGGETGEGGETGEGGETGEGGEGDSISFIDFEYSCPMERAYDIANHFNEYAGFNCDWDLTPSKEEEYHFIMHYLGTDDEELINQLIREIQPFYICSHINWGLWSLLQGMHSSIDFDFINYGMTRLTASCLPIFRSKV | soluble
5 | GSGGARGLYLQTVTYNFLKEQGDNRIVRTQALPATRGTVSDRNGAVLALSAPTESLFAVPKDMKEMPSAAQLERLSELVDVPVDVLRNKLEQKGKSFIWIKRQLDPKVAEEVKALGLENFVFEKELKRHYPMGNLFAHVIGFTDIDGKGQEGLELSLEDSLYGEDGAEVVLRDRQGNIVDSLDSPRNKAPQNGKDIILSLDQRIQTLAYEELNKAVEYHQAKAGTVVVLDARTGEILALANTPAYDPNRPGRADSEQRRNRAVTDMIEPGSAIKPFVIAKALDAGKTDLNERLNTQPYKIGPSPVRDTHVYPSLDVRGIMQKSSNVGTSKLSARFGAEEMYDFYHELGIGVRMHSGFPGETAGLLRNWRRWRPIEQATMSFGYGLQLSLLQLARAYTALTHDGVLLPLSFEKQAVAPQGKRIFKESTAREVRNLMVSVTEPGGTGTAGAVDGFDVGAKTGTARKFVNGRYADNKHVATFIGFAPAKNPRVIVAVTIDEPTAHGYYGGVVAGPPFKKIMGGSLNILGISPTKPLTAAAVKTPS | soluble
6 | GSGGIEGRHMVELLKLVRSSGCAAKVGPGDLQEILKGFNIYTDESTLVSIGDDAGVYEHNGIIWVYTVDIITPVVNDPYLWGAISTANALSDVYAMGGIPVNALAISCFNNCELDIEIFREVIRGALDKLREAKTVLLGGHTIDDKEPKFGLSVAGICPEGKYITQSGAQVGQLLILTKPIGTGILIKGLKEGILKEEDINEAIENMLALNDKARNLMLSLDATACTDVTGFGLLGHAWNICKNSNIGARIFFEKVPYYQLSENLVKKKIYPKGAIENLNFVKNYLKSNLDNWKLILLSDPVTSGGLLFTINKEKLEKIDETAKELEVNYWIIGETIAENVLEVL | soluble
7 | GSGRVSLNFKDPEAVRALTCTLLREDFGLSIDIPLERLIPTVPLRLNYIHWVEDLIGHQDSDKSTLRRGIDIGTGASCIYPLLGATLNGWYFLATEVDDMCFNYAKKNVEQNNLSDLIKVVKVPQKTLLMDALKEESEIIYDFCMCNPPFFANQLEAKGVNSRNPRRPPPSSVNTGGITEIMAEGGELEFVKRIIHDSLQLKKRLRWYSCMLGKKCSLAPLKEELRIQGVPKVTYTEFCQGRTMRWALAWSFYD | soluble
8 | GSHMASKISDNVRIKLYMEGTVNNHHFMCEAEGEGKPYEGTQMENIKVTKGGPLPFSFDILTPNCQYGSVAITKYTSGIPDYFKQSFPEGFTWERTTIYEDGAYLTTQQETKLDGNCLVYNIKILGCNFPPNGPVMQKKTQGWEPCCEMRYTRDGVLCGQTLMALKCADGNHLTCHLRTTYRSKKAAKALQMPPFHFSDHRPEIVKVSENGTLFEQHESSVARYCQTCPSKLGHN | soluble
9 | GSHMASMFGKLREKLKSFVKRVEEEVEKEEEEVEKKGLLDRILTVEIKEKDVDKALDELEIDLLEADVALEVVDALREKIKQKLVGKKVRIGTDKGKIIEEAVKEAVSEILETSRRIDLIEEIRKAEKPYVIMFVGFNGSGKTTTIAKLANWLKNHGFSVVIAASDTFRAGAIEQLEEHAKRIGVKVIKHSYGADPAAVAYDAIQHAKARGIDVVLIDTAGRSETNRNLMDEMKKIARVTKPNLVIFVGDALAGNAIVEQARQFNEAVKIDGIILTKLDADARGGAALSISYVIDAPILFVGVGQGYDDLRPFEKEWFLERIFGEENA | soluble
10 | GSHMASMTGGQQMGRGSEFKKYLETNGIKPKQFHKKELIFNQWDPQEYCIFLYDGITKLTSISENGTIMNLQYYKGAFVIMSGFIDTETSVGYYNLEVISEQATAYVIKINELKELLSKNLTHFFYVFQTLQKQVSYSLAKFNDFSINGKLGSICGQLLILTYVYGKETPDGIKITLDNLTMQELGYSSGIAHSSAVSRIISKLKQEKVIVYKNSCFYVQNLDYLKRYAPKLDEWFYLACPATWGKLN | soluble
11 | GSHMDDDLVDAEGNLVENGGTYYLLPHIWAHGGGIETAKTGNEPCPLTVVRSPNEVSKGEPIRISSQYRSLFIPRGSLVALGFANPPSCAASPWWTVVDSPQGPAVKLSQQKLPEKDILVFKFEKVSHSNIHVYKLLYCQHDEEDVKCDQYIGIHRDRNGNRRLVVTEENPLELVLLKAKSETASSH | soluble
12 | GSHMDHLPMPKFGPLAGLRVVFSGIEIAGPFAGQMFAEWGAEVIWIENVAWADTIRVQPNYPQLSRRNLHALSLNIFKDEGREAFLKLMETTDIFIEASKGPAFARRGITDEVLWQHNPKLVIAHLSGFGQYGTEEYTNLPAYNTIAQAFSGYLIQNGDVDQPMPAFPYTADYFSGLTATTAALAALHKVRETGKGESIDIAMYEVMLRMGQYFMMDYFNGGEMCPRMSKGKDPYYAGCGLYKCADGYIVMELVGITQIEECFKDIGLAHLLGTPEIPEGTQLIHRIECPYGPLVEEKLDAWLATHTIAEVKERFAELNIACAKVLTVPELESNPQYVARESITQWQTMDGRTCKGPNIMPKFKNNPGQIWRGMPSHGMDTAAILKNIGYSENDIQELVSKGLAKVED | soluble
13 | GSHMLEMSGPRAGFYRQELNKTVWEVPQRLQGLRPVGSGAYGSVCSAYDARLRQKVAVKKLSRPFQSLIHARRTYRELRLLKHLKHENVIGLLDVFTPATSIEDFSEVYLVTTLMGADLNNIVKCQALSDEHVQFLVYQLLRGLKYIHSAGIIHRDLKPSNVAVNEDSELRILDFGLARQADEEMTGYVATRWYRAPEIMLNWMHYNQTVDIWSVGCIMAELLQGKALFPGSDYIDQLKRIMEVVGTPSPEVLAKISSEHARTYIQSLPPMPQKDLSSIFRGANPLAIDLLGRMLVLDSDQRVSAAEALAHAYFSQYHDPEDEPEAEPYDESVEAKERTLEEWKELTYQEVLSFKPPEPPKPPGSLEIEQ | soluble
14 | GSHMTMSRRNTDAITIHSILDWIEDNLESPLSLEKVSERSGYSKWHLQRMFKKETGHSLGQYIRSRKMTEIAQKLKESNEPILYLAERYGFESQQTLTRTFKNYFDVPPHKYRMTNMQGESRFLHPLNHYNS | soluble
15 | GSHMTNWLRVYYYEDTISTIKDIAVEEDLSSTPLLKDLLELTRREFQREDIALNYRDAEGDLVRLLSDEDVALMVRQARGLPSQKRLFPWKLHITQKDNYRVYNTMP | soluble
16 | GSHMTPPHNYLAVIKVVGIGGGGVNAVNRMIEQGLKGVEFIAINTDAQALLMSDADVKLDVGRDSTRGLGAGADPEVGRKAAEDAKDEIEELLRGADMVFVTAGEGGGTGTGGAPVVASIARKLGALTVGVVTRPFSFEGKRRSNQAENGIAALRESCDTLIVIPNDRLLQMGDAAVSLMDAFRSADEVLLNGVQGITDLITTPGLINVDFADVKGIMSGAGTALMGIGSARGEGRSLKAAEIAINSPLLEASMEGAQGVLMSIAGGSDLGLFEINEAASLVQDAAHPDANIIFGTVIDDSLGDEVRVTVIAAGFDVSGPGRKPVMGETGGAHRIESAKAGKLTSTLFEPVDAVSVPLHTNGATLSIGGDDDDVDVPPFMRR | soluble
17 | GSKCKCSRKGPKIRYSDVKKLEMKPKYPHCEEKMVIITTKSVSRYRGQEHCLHPKLQSTKRFIKWYNAWNEKRRVYEE | soluble
18 | GSMEPAMEPETLEARINRATNPLNKELDWASINGFCEQLNEDFEGPPLATRLLAHKIQSPQEWEAIQALTVLETCMKSCGKRFHDEVGKFRFLNELIKVVSPKYLGSRTSEKVKNKILELLYSWTVGLPEEVKIAEAYQMLKKQGIVKS | soluble
19 | GSMGDTKEQRILRYVQQNAKPGDPQSVLEAIDTYCTQKEWAMNVGDAKGQIMDAVIREYSPSLVLELGAYCGYSAVRMARLLQPGARLLTMEMNPDYAAITQQMLNFAGLQDKVTILNGASQDLIPQLKKKYDVDTLDMVFLDHWKDRYLPDTLLLEKCGLLRKGTVLLADNVIVPGTPDFLAYVRGSSSFECTHYSSYLEYMKVVDGLEKAIYQGPSSPDKS | soluble
20 | GSMPHIKGHEGDPCLRSSDCIDGFCCARHFWTKICKPVLHQGEVCTKQRKKGSHGLEIFQRCDCAKGLSCKVWKDATYSSKARLHVCQKI | soluble
21 | GSQEEDLPRPSISAEPGTVIPLGSHVTFVCRGPVGVQTFRLERESRSTYNDTEDVSQASPSESEARFRIDSVSEGNAGPYRCIYYKPPKWSEQSDYLELLVKEAAA | soluble
22 | GSQGHDTVQPNFQQDKFLGRWYSAGLASNSSWFREKKAVLYMAKTVVAPSTEGGLNLTSTFLRKNQCETKIMVLQPAGAPGHYTYSSPHSGSIHSVSVVEANYDEYALLFSRGTKGPGQDFRMATLYSRTQTLKDELKEKFTTFSKAQGLTEEDIVFLPQPDKCIQE | soluble
23 | GSSIFDIYVVTADYLPLGAEQDAITLREGQYVEVLDAAHPLRWLVRTKPTKSSPSRQGWVSPAYLDRRLKL | soluble
24 | GSTIAPEEHYTPEEASSREETAWDTAAEEVELLAADGAVHNQELFLECTTSPLIFASAMLNFGVHQILDTLCELAPQPHGRESDERAVEAATGAFDSSREVTDEFSGVVFKVQAGMDKNHRDSLAFMRVVSGEFDRGMQVTHAQSGRSFSTKYALTVFGRTRSTVESAFPGDIVGLVNAGSLAPGDTIFAGRKVQYPPMPQFAPEHFRTLRAKSLGKYKQFRKALDQLAAEGVVQILKNDARGDAAPVMAAVGPMQFEVMMARMQNEYNVETVADPIPYSVARRTTPETATELAKQRGVEIFTRTDGELVALFGDKWKLAFIEKEHPEFELLPMVAD | not soluble

From the DeepSol protein solubility set
